Results: patent US20170081395A1 (LABRYS BIOLOGICS, published 2017)
Ends that are not written are not given here.

B1: human α-CGRP 1-36-COOH (peptide)
peptide: ACDTATCVTHRLAGLLSRSGGVVKNNFVPTNVGSKA-OH
modifications: ends and bridges not checked
notes: also called Peptide 1-36 (not amidated at the C-terminus)

Target: T1, antibody G1 Fab fragment
T1 construct: purified on Ni-NTA (tag not described); also called antibody G1 Fabs
Experiment: Biacore, 10 uM peptide with 50 nM G1 Fab over human α-CGRP on chip

T1 sequence (VH, as listed by the source, chain 1 of 2): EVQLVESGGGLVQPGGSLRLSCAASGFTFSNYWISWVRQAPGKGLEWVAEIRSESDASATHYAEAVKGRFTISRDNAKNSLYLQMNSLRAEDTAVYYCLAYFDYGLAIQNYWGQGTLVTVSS
T1 sequence (VL, as listed by the source, chain 2 of 2): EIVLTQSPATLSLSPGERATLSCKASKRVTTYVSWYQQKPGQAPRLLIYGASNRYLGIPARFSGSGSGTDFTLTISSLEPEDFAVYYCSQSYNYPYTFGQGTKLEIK

% of binding blocked [%]	Binder
100	SGGVVKNNFVPTNVGSAAF-NH2 (also: N-terminal biotin when captured on the chip) [human α-CGRP K35A (19-37)]
100	SGGVVKNNFVATNVGSKAF-NH2 [human α-CGRP P29A (19-37)]
100	SGGVVKNNFVPTNVGSEAF-NH2 (also: N-terminal biotin when captured on the chip) [human α-CGRP K35E (19-37)]
100	SGGVVKNNFVPTNVGSMAF-NH2 (also: N-terminal biotin when captured on the chip) [human α-CGRP K35M (19-37)]
100	SCNTATCVTHRLAGLLSRSGGVVKDNFVPTNVGSEAF-NH2 (ends and bridges not checked; also: N-terminal biotin when captured on the chip, also called rat α (1-37); α-rat) [rat α-CGRP (1-37)]
~40	B1
